{
  "source": "paper PMC2267168",
  "about": "“Competition between Delta and the Abruptex domain of Notch” (BMC Developmental Biology, 2008)",
  "binders": {"B1": {"name": "N21-30:Fc (Fc fusion)", "chain": "ETNIDDCVTNPCGNGGTCIDKVNGYKCVCKVPFTGRDCESKMDPCASNRCKNEAKCTPSSNFLDFSCTCKLGYTGRYCDEDIDECSLSSPCRNGASCLNVPGSYRCLCTKGYEGRDCAINTDDCASFPCQNGGTCLDGIGDYSCLCVDGFDGKHCETDINECLSQPCQNGATCSQYVNSYTCTCPLGFSGINCQTNDEDCTESSCLNGGSCIDGINGYNCSCLAGYSGANCQYKLNKCDSNPCLNGATCHEQNNEYTCHCPSGFTGKQCSEYVDWCGQSPCENGATCSQMKHQFSCKCSAGWTGKLCDVQTISCQDAADRKGLSLRQLCNNGTCKDYGNSHVCYCSQGYAGSYCQKEIDECQSQPCQNGGTCRDLIGAYECQCRQGFQGQNCELNIDD"}, "B2": {"name": "N22-27:Fc (Fc fusion)", "chain": "KMDPCASNRCKNEAKCTPSSNFLDFSCTCKLGYTGRYCDEDIDECSLSSPCRNGASCLNVPGSYRCLCTKGYEGRDCAINTDDCASFPCQNGGTCLDGIGDYSCLCVDGFDGKHCETDINECLSQPCQNGATCSQYVNSYTCTCPLGFSGINCQTNDEDCTESSCLNGGSCIDGINGYNCSCLAGYSGANCQYKLNKCDSNPCLNGATCHEQNNEYTCHCPSGFTGKQCS"}, "B3": {"name": "N21-25:Fc (Fc fusion)", "chain": "ETNIDDCVTNPCGNGGTCIDKVNGYKCVCKVPFTGRDCESKMDPCASNRCKNEAKCTPSSNFLDFSCTCKLGYTGRYCDEDIDECSLSSPCRNGASCLNVPGSYRCLCTKGYEGRDCAINTDDCASFPCQNGGTCLDGIGDYSCLCVDGFDGKHCETDINECLSQPCQNGATCSQYVNSYTCTCPLGFSGINCQTNDED"}, "B4": {"name": "N26-30:Fc (Fc fusion)", "chain": "QTNDEDCTESSCLNGGSCIDGINGYNCSCLAGYSGANCQYKLNKCDSNPCLNGATCHEQNNEYTCHCPSGFTGKQCSEYVDWCGQSPCENGATCSQMKHQFSCKCSAGWTGKLCDVQTISCQDAADRKGLSLRQLCNNGTCKDYGNSHVCYCSQGYAGSYCQKEIDECQSQPCQNGGTCRDLIGAYECQCRQGFQGQNCELNIDD", "modifications": "Fc-dimerised (Fc left out); secreted from S2 cells, O-fucosylation predicted. The forward primer (Q-T-N-D-E-D-C) overlaps the reverse primer ending at Asp1025, so the printed Gln1000 is Gln1020"}, "B5": {"name": "N11-14:V5:His (domain or fragment, Drosophila, UniProt P07207 447-605, looked up)", "chain": "SEDIDECDQGSPCEHNGICVNTPGSYRCNCSQGFTGPRCETNINECESHPCQNEGSCLDDPGTFRCVCMPGFTGTQCEIDIDECQSNPCLNDGTCHDKINGFKCSCALGFTGARCQINIDDCQSQPCRNRGICHDSIAGYSCECPPGYTGTSCEININD", "notes": "also called N11-4:V5:His; EGF repeats 11-14; source: Drosophila Schneider cells, transfected, secreted; purified from conditioned medium (ProBond resin)"}, "B6": {"name": "N11-14spl:V5:His (domain or fragment, Drosophila, UniProt P07207 447-605, looked up)", "chain": "B5 chain with I132T", "notes": "Notch, Drosophila, EGF repeats 11-14 with the I578T change of the split (spl) allele in EGF repeat 14; limits as N11-14, Ser447 to Asp605; also called split mutant; source: Drosophila Schneider cells, transfected, secreted; purified from conditioned medium (ProBond resin)"}, "B7": {"name": "Dl:Fc (Fc fusion)", "chain": "QVHSSGSFELRLKYFSNDHGRDNEGRCCSGESDGATGKCLGSCKTRFRVCLKHYQATIDTTSQCTYGDVITPILGENSVNLTDAQRFQNKGFTNPIQFPFSFSWPGTFSLIVEAWHDTNNSGNARTNKLLIQRLLVQQVLEVSSEWKTNKSESQYTSLEYDFRVTCDLNYYGSGCAKFCRPRDDSFGHSTCSETGEIICLTGWQGDYCHIPKCAKGCEHGHCDKPNQCVCQLGWKGALCNECVLEPNCIHGTCNKPWTCICNEGWGGLYCNQDLNYCTNHRPCKNGGTCFNTGEGLYTCKCAPGYSGDDCENEIYSCDADVNPCQNGGTCIDEPHTKTGYKCHCANGWSGKMCEEKVLTCSDKPCHQGICRNVRPGLGSKGQGYQCECPIGYSGPNCDLQLDNCSPNPCINGGSCQPSGKCICPAGFSGTRCETNIDDCLGHQCENGGTCIDMVNQYRCQCVPGFHGTHCSSKVDLCLIRPCANGGTCLNLNNDYQCTCRAGFTGKDCSVDIDECSSGPCHNGGTCMNRVNSFECVCANGFRGKQCDE"}, "B8": {"name": "N11-20:V5:His (domain or fragment, Drosophila, UniProt P07207 447-832, looked up)", "chain": "SEDIDECDQGSPCEHNGICVNTPGSYRCNCSQGFTGPRCETNINECESHPCQNEGSCLDDPGTFRCVCMPGFTGTQCEIDIDECQSNPCLNDGTCHDKINGFKCSCALGFTGARCQINIDDCQSQPCRNRGICHDSIAGYSCECPPGYTGTSCEININDCDSNPCHRGKCIDDVNSFKCLCDPGYTGYICQKQINECESNPCQFDGHCQDRVGSYYCQCQAGTSGKNCEVNVNECHSNPCNNGATCIDGINSYKCQCVPGFTGQHCEKNVDECISSPCANNGVCIDQVNGYKCECPRGFYDAHCLSDVDECASNPCVNEGRCEDGINEFICHCPPGYTGKRCELDIDECSSNPCQHGGTCYDKLNAFSCQCMPGYTGQKCETNIDD", "notes": "also called EGF repeats 11-20 of the N extracellular domain; source: Drosophila Schneider cells, transfected, secreted; purified from conditioned medium (ProBond resin)"}},
  "key": {"N11-20:V5:His [1]": {"biological_target": "T1, N11-20:V5:His (Drosophila, UniProt P07207 447-832)", "T1 chain": "B8 chain", "assay": "ELISA"}, "N11-14:V5:His [2]": {"biological_target": "T2, N11-14:V5:His (Drosophila, UniProt P07207 447-605)", "T2 chain": "B5 chain", "assay": "ELISA"}, "N11-20:V5:His [3]": {"biological_target": "T1, N11-20:V5:His", "assay": "ELISA"}, "N11-14:V5:His [4]": {"biological_target": "T2, N11-14:V5:His", "assay": "ELISA"}, "N11-14spl:V5:His [5]": {"biological_target": "T3, N11-14spl:V5:His (Drosophila, UniProt P07207 447-605, I578T)", "T3 sequence": "B5 chain with I132T", "assay": "ELISA"}, "N11-20:V5:His [6]": {"biological_target": "T1, N11-20:V5:His", "assay": "ELISA; pH 5.4"}, "N11-20:V5:His [7]": {"biological_target": "T1, N11-20:V5:His", "assay": "ELISA; pH 7.4"}, "N21-30:Fc [8]": {"biological_target": "T4, N21-30:Fc (Drosophila, UniProt P07207 827-1224)", "T4 construct": "also called Abruptex region; EGF repeat 21-30 region of Notch; source: Drosophila Schneider cells, transfected, secreted; purified from conditioned medium (Protein A beads); not shown: Fc (human IgG), C-terminal, kept", "T4 sequence (looked up)": "B1 chain", "assay": "ELISA; as the plate assay, at pH 7.4 in citric acid/Na2HPO4 or Tris maleate/NaOH buffer in place of Tris pH 8.0", "settings": "both partners purified"}, "N11-14:V5:His [9]": {"biological_target": "T2, N11-14:V5:His", "assay": "ELISA"}, "N11-14spl:V5:His [10]": {"biological_target": "T3, N11-14spl:V5:His", "assay": "ELISA", "remark": "listed apart in the source"}, "N11-20:V5:His [11]": {"biological_target": "T1, N11-20:V5:His", "assay": "ELISA; 200 ng His-tagged protein adsorbed to a 96-well plate at 4°C overnight, blocked with 3% BSA; purified Fc fusion added in TBS (10 mM Tris-Cl pH 8.0, 150 mM NaCl, 1 mM CaCl2) for 2 h; detected with HRP anti-human IgG; half-maximal binding ('Kd') fitted with Prizm, said not to be a true Kd"}, "N21-30:Fc [12]": {"biological_target": "T4, N21-30:Fc", "assay": "ELISA; competition: 10 ng (2.74 nM) N21-30:Fc or 100 ng (23.2 nM) Dl:Fc on adsorbed N11-20, with increasing amounts of soluble Dl:V5:His or N21-30:V5:His", "settings": "both partners purified"}, "N21-30:V5:His": {"biological_target": "T5, N21-30:V5:His (Drosophila, UniProt P07207 827-1224)", "T5 construct": "source: Drosophila Schneider cells, transfected, secreted; purified from conditioned medium (ProBond resin)", "T5 sequence (looked up)": "B1 chain", "assay": "ELISA; competition: 10 ng (2.74 nM) N21-30:Fc or 100 ng (23.2 nM) Dl:Fc on adsorbed N11-20, with increasing amounts of soluble Dl:V5:His or N21-30:V5:His", "settings": "both partners purified"}},
  "note": "Numbering of substitutions follows the chain as printed. In names and notes the source's numbering stands. Like-named read-outs stand apart in the source and are kept apart here.",
  "data": [
    {"binder": "B1", "values": [
      {"measurement": "Kd", "setting": "N11-20:V5:His [1]", "result": 0.0275, "unit": "µM"},
      {"measurement": "Kd", "setting": "N11-14:V5:His [2]", "result": 0.00542, "unit": "µM"},
      {"measurement": "Kd", "setting": "N11-20:V5:His [3]", "result": 0.0045, "unit": "µM"},
      {"measurement": "Kd", "setting": "N11-14:V5:His [4]", "result": 0.0213, "unit": "µM"},
      {"measurement": "Kd", "setting": "N11-14spl:V5:His [5]", "result": 0.0289, "unit": "µM"},
      {"measurement": "Kd", "setting": "N11-20:V5:His [6]", "result": 0.034, "unit": "µM"},
      {"measurement": "Kd", "setting": "N11-20:V5:His [7]", "result": 0.0164, "unit": "µM"}
    ]},
    {"binder": "B2", "values": [
      {"measurement": "Kd", "setting": "N11-14:V5:His [2]", "result": 0.0126, "unit": "µM"}
    ]},
    {"binder": "B3", "values": [
      {"measurement": "Kd", "setting": "N11-14:V5:His [2]", "result": 0.00277, "unit": "µM"},
      {"measurement": "Kd", "setting": "N11-20:V5:His [3]", "result": 0.00279, "unit": "µM"}
    ]},
    {"binder": "B4", "values": [
      {"measurement": "Kd", "setting": "N11-14:V5:His [2]", "result": 0.00281, "unit": "µM"}
    ]},
    {"binder": "B5", "values": [
      {"measurement": "binding result", "setting": "N21-30:Fc [8]", "result": "binds"}
    ]},
    {"binder": "B6", "values": [
      {"measurement": "binding result", "setting": "N21-30:Fc [8]", "result": "binds"}
    ]},
    {"binder": "B7", "values": [
      {"measurement": "Kd", "setting": "N11-14:V5:His [9]", "result": 0.0166, "unit": "µM"},
      {"measurement": "Kd", "setting": "N11-14spl:V5:His [10]", "result": 0.0234, "unit": "µM"},
      {"measurement": "Kd", "setting": "N11-20:V5:His [1]", "result": 0.0251, "unit": "µM"},
      {"measurement": "Kd", "setting": "N11-20:V5:His [6]", "result": 0.00458, "unit": "µM"},
      {"measurement": "Kd", "setting": "N11-20:V5:His [7]", "result": 0.0298, "unit": "µM"},
      {"measurement": "EC50", "setting": "N11-20:V5:His [11]", "result": 0.00187, "unit": "µM"}
    ]},
    {"binder": "B8", "values": [
      {"measurement": "binding result", "setting": "N21-30:Fc [12]", "result": "binds"},
      {"measurement": "binding result", "setting": "N21-30:V5:His", "result": "binds"}
    ]}
  ]
}
